Results taken from patent US20250277023A1 (published 2025).

biological target: PD-L1 (on CHO-PD-L1 cells) (UniProt Q9NZQ7 19-290); assay: FACS binding; Fig. 22
Sequence (Q9NZQ7 19-290): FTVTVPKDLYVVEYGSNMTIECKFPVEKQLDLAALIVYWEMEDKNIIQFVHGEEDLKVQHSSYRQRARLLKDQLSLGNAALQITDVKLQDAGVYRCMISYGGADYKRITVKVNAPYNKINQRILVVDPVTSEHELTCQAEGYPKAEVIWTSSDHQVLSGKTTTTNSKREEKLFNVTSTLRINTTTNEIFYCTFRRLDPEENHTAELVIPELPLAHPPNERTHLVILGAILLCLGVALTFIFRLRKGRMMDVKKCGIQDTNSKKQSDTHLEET

Binder | EC50 [nM]
R1119: TIGIT_VH_IL18R1_D1D2/TIGIT_VL_IL18/PD-L1-Fab (bispecific antibody) chain 1: QVQLVQSGAEVKKPGSSVKVSCKASGYSFTSYWMNWVRQAPGQGLEWIGMIRPSDSETRLNQMFKDRVTITVDKSTSTAYMELSSLRSEDTAVYYCAGIHDYGHGAYWGQGTLVTVSSGGGGSGGGGSGGGGSGGGGSGCTSRPHITVVEGEPFYLKHCSCSLAHEIETTTKSWYKSSGSQEHVELNPRSSSRIALHDCVLEFWPVELNDTGSYFFQMKNYTQKWKLNVIRRNKHSCFTERQVTSKIVEVKKFFQITCENSYYQTLVNSTSLYKNCKKLLLENNKNPTIKKNAEFEDQGYYSCVHFLHHNGKLFNITKTFNITIVEDRSNIVEPKSSDKTHTCPPCPAPELLGGPSVFLFPPKPKDTLMISRTPEVTCVVVDVSHEDPEVKFNWYVDGVEVHNAKTKPREEQYNSTYRVVSVLTVLHQDWLNGKEYKCKVSNKALPAPIEKTISKAKGQPREPQVYTLPPSREEMTKNQVSLTCRVKGFYPSDIAVEWESNGQPENNYKTTPPVLKSDGSFFLASKLTVDKSRWQQGNVFSCSVMHEALHNHYTQKSLSLSPGK chain 2: not shown heavy: EVQLQESGPGLVKPSETLSLTCAVYGDSITSGYWNWIRKPPGKGLEYMGYISYTGSTYQNPSLKSRITFSRDTSKNQYYLKLSSVTAADTATYYCARSRAWIRTYFDYWGQGTLVTVSSASTKGPSVFPLAPSSKSTSGGTAALGCLVKDYFPEPVTVSWNSGALTSGVHTFPAVLQSSGLYSLSSVVTVPSSSLGTQTYICNVNHKPSNTKVDKRVEPKSCDKTHTCPPCPAPELLGGPSVFLFPPKPKDTLMISRTPEVTCVVVDVSHEDPEVKFNWYVDGVEVHNAKTKPREEQYNSTYRVVSVLTVLHQDWLNGKEYKCKVSNKALPAPIEKTISKAKGQPREPQVYTLPPSREEMTKNQVSLWCLVKGFYPSDIAVEWESNGQPENNYDTTPPVLDSDGSFFLYSDLTVDKSRWQQGNVFSCSVMHEALHNHYTQKSLSLSPGK light: EIVLTQSPDFQSVTPKEKVTITCSVSSSISSSNLHWYQQKPDQSPKLLIYGTSNLASGVPSRFSGSGSGTDFTLTINSLEAEDAATYYCQQWSSYPLTFGQGTKLEIKRTVAAPSVFIFPPSDEQLKSGTASVVCLLNNFYPREAKVQWKVDNALQSGNSQESVTEQDSKDSTYSLSSTLTLSKADYEKHKVYACEVTHQGLSSPVTKSFNRGEC | 2.95
R0919 (PD-L1 monoclonal antibody) (antibody, V domains shown) VH: EVQLQESGPGLVKPSETLSLTCAVYGDSITSGYWNWIRKPPGKGLEYMGYISYTGSTYQNPSLKSRITFSRDTSKNQYYLKLSSVTAADTATYYCARSRAWIRTYFDYWGQGTLVTVSS VL: EIVLTQSPDFQSVTPKEKVTITCSVSSSISSSNLHWYQQKPDQSPKLLIYGTSNLASGVPSRFSGSGSGTDFTLTINSLEAEDAATYYCQQWSSYPLTFGQGTKLEIK | 3.38
R1120: TIGIT_VH_IL18R1_D1D2D3/TIGIT_VL_IL18/PD-L1-Fab (bispecific antibody) chain 1: QVQLVQSGAEVKKPGSSVKVSCKASGYSFTSYWMNWVRQAPGQGLEWIGMIRPSDSETRLNQMFKDRVTITVDKSTSTAYMELSSLRSEDTAVYYCAGIHDYGHGAYWGQGTLVTVSSGGGGSGGGGSGGGGSGGGGSGCTSRPHITVVEGEPFYLKHCSCSLAHEIETTTKSWYKSSGSQEHVELNPRSSSRIALHDCVLEFWPVELNDTGSYFFQMKNYTQKWKLNVIRRNKHSCFTERQVTSKIVEVKKFFQITCENSYYQTLVNSTSLYKNCKKLLLENNKNPTIKKNAEFEDQGYYSCVHFLHHNGKLFNITKTFNITIVEDRSNIVPVLLGPKLNHVAVELGKNVRLNCSALLNEEDVIYWMFGEENGSDPNIHEEKEMRIMTPEGKWHASKVLRIENIGESNLNVLYNCTVASTGGTDTKSFIEPKSSDKTHTCPPCPAPELLGGPSVFLFPPKPKDTLMISRTPEVTCVVVDVSHEDPEVKFNWYVDGVEVHNAKTKPREEQYNSTYRVVSVLTVLHQDWLNGKEYKCKVSNKALPAPIEKTISKAKGQPREPQVYTLPPSREEMTKNQVSLTCRVKGFYPSDIAVEWESNGQPENNYKTTPPVLKSDGSFFLASKLTVDKSRWQQGNVFSCSVMHEALHNHYTQKSLSLSPGK chain 2: not shown heavy: EVQLQESGPGLVKPSETLSLTCAVYGDSITSGYWNWIRKPPGKGLEYMGYISYTGSTYQNPSLKSRITFSRDTSKNQYYLKLSSVTAADTATYYCARSRAWIRTYFDYWGQGTLVTVSSASTKGPSVFPLAPSSKSTSGGTAALGCLVKDYFPEPVTVSWNSGALTSGVHTFPAVLQSSGLYSLSSVVTVPSSSLGTQTYICNVNHKPSNTKVDKRVEPKSCDKTHTCPPCPAPELLGGPSVFLFPPKPKDTLMISRTPEVTCVVVDVSHEDPEVKFNWYVDGVEVHNAKTKPREEQYNSTYRVVSVLTVLHQDWLNGKEYKCKVSNKALPAPIEKTISKAKGQPREPQVYTLPPSREEMTKNQVSLWCLVKGFYPSDIAVEWESNGQPENNYDTTPPVLDSDGSFFLYSDLTVDKSRWQQGNVFSCSVMHEALHNHYTQKSLSLSPGK light: EIVLTQSPDFQSVTPKEKVTITCSVSSSISSSNLHWYQQKPDQSPKLLIYGTSNLASGVPSRFSGSGSGTDFTLTINSLEAEDAATYYCQQWSSYPLTFGQGTKLEIKRTVAAPSVFIFPPSDEQLKSGTASVVCLLNNFYPREAKVQWKVDNALQSGNSQESVTEQDSKDSTYSLSSTLTLSKADYEKHKVYACEVTHQGLSSPVTKSFNRGEC | 2.99
R1116: TIGIT_VH_IL2/TIGIT_VL_IL2RA/PD-L1-Fab (bispecific antibody) chain 1: not shown chain 2: DIQMTQSPSSLSASVGDRVTITCRASENIYSNLAWYQQKPGKSPKLLVYAASHLPDGVPSRFSGSGSGTDYSLTISSLQPEDFATYYCQHFWGTPRTFGQGTKLEIKGGGGSGGGGSGGGGSGGGGSGELCDDDPPEIPHATFKAMAYKEGTMLNCECKRGFRRIKSGSLYMLCTGNSSHSSWDNQCQCTSSATRNTTKQVTPQPEEQKERKTTEMQSPMQPVDQASLPGHCREPPPWENEATERIYHFVVGQMVYYQCVQGYRALHRGPAESVCKMTHGKTRWTQPQLICTG heavy: EVQLQESGPGLVKPSETLSLTCAVYGDSITSGYWNWIRKPPGKGLEYMGYISYTGSTYQNPSLKSRITFSRDTSKNQYYLKLSSVTAADTATYYCARSRAWIRTYFDYWGQGTLVTVSSASTKGPSVFPLAPSSKSTSGGTAALGCLVKDYFPEPVTVSWNSGALTSGVHTFPAVLQSSGLYSLSSVVTVPSSSLGTQTYICNVNHKPSNTKVDKRVEPKSCDKTHTCPPCPAPELLGGPSVFLFPPKPKDTLMISRTPEVTCVVVDVSHEDPEVKFNWYVDGVEVHNAKTKPREEQYNSTYRVVSVLTVLHQDWLNGKEYKCKVSNKALPAPIEKTISKAKGQPREPQVYTLPPSREEMTKNQVSLWCLVKGFYPSDIAVEWESNGQPENNYDTTPPVLDSDGSFFLYSDLTVDKSRWQQGNVFSCSVMHEALHNHYTQKSLSLSPGK light: EIVLTQSPDFQSVTPKEKVTITCSVSSSISSSNLHWYQQKPDQSPKLLIYGTSNLASGVPSRFSGSGSGTDFTLTINSLEAEDAATYYCQQWSSYPLTFGQGTKLEIKRTVAAPSVFIFPPSDEQLKSGTASVVCLLNNFYPREAKVQWKVDNALQSGNSQESVTEQDSKDSTYSLSSTLTLSKADYEKHKVYACEVTHQGLSSPVTKSFNRGEC | 4.15
